The record followed here is publication doi:10.1101/2020.08.04.235895, “Analysis of Structure and function by the LysR-Type Transcriptional Regulator CbbR of Nostoc sp. PCC 7120”.

In series [1] the target is T1, CbbR_7120 (Nostoc sp. PCC 7120, UniProt Q8YQ82 1-337).
T1 sequence: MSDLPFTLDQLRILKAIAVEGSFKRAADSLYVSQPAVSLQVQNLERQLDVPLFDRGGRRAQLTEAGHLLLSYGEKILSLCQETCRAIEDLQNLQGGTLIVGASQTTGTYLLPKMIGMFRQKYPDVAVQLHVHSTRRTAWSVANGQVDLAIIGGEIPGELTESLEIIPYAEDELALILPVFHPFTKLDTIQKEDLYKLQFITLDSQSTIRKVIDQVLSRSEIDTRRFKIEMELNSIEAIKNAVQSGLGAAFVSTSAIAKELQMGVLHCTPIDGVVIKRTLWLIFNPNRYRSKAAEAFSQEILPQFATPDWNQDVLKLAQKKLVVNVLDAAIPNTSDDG
In words: competition EMSA; competitor vs FAM-DNA; EMSA: 5X buffer 100 mM HEPES pH 7.6, 5 mM EDTA, 50 mM (NH4)2SO4, 5 mM DTT, 1% Tween 20, 150 mM KCl (2.5 uL per reaction, volume printed as 10 mL); 15 min on ice; 6% TBE-PAGE on ice. The note with it: protein: recombinant; tags: N-terminal 6xHis; chain copies: 4; blunt. For orientation: A gel shift assay detects complexes by their altered migration in electrophoresis.

Series [2] deals with T1, CbbR_7120. Described as above. The note with it: protein: recombinant; tags: N-terminal 6xHis; chain copies: 4; blunt. This is another data set of the same source.
Series [3] has as its target T1, CbbR_7120. Described as above. The following applies: protein: recombinant; tags: N-terminal 6xHis; chain copies: 4; blunt. This is another data set of the same source.
Series [4] addresses T1, CbbR_7120. Description: competition EMSA; competitor vs FAM-DNA; no significant change in free FAM-DNA; EMSA: 5X buffer 100 mM HEPES pH 7.6, 5 mM EDTA, 50 mM (NH4)2SO4, 5 mM DTT, 1% Tween 20, 150 mM KCl (2.5 uL per reaction, volume printed as 10 mL); 15 min on ice; 6% TBE-PAGE on ice. The note with it: protein: recombinant; tags: N-terminal 6xHis; chain copies: 4; blunt.
The target in series [5] is T1, CbbR_7120. Description: EMSA; EMSA: 5X buffer 100 mM HEPES pH 7.6, 5 mM EDTA, 50 mM (NH4)2SO4, 5 mM DTT, 1% Tween 20, 150 mM KCl (2.5 uL per reaction, volume printed as 10 mL); 15 min on ice; 6% TBE-PAGE on ice. The following applies: protein: recombinant; tags: N-terminal 6xHis; chain copies: 4; label: 5'-FAM on forward strand; blunt.

B1: BOX1OP1 (dsDNA)
DNA 1: TGTAATAACAAATTTAAATATGTCATATAACAAATTTAAATATGT
DNA 2: ACATATTTAAATTTGTTATATGACATATTTAAATTTGTTATTACA
As for B1, the binding signal in series [1] was ~10 competitor:FAM-DNA ratio for complete competition.

B2: BOX 3 (dsDNA)
DNA 1: TTATGCCATTTCTTGATAT
DNA 2: ATATCAAGAAATGGCATAA
Take B2: in series [2], the binding signal is ~1000 competitor:FAM-DNA ratio for complete competition.

B3: BOX 1 (dsDNA)
DNA 1: TAATAACAAATTTAAATAT
DNA 2: ATATTTAAATTTGTTATTA
Take B3: in series [3], the binding signal is ~400 competitor:FAM-DNA ratio for complete competition.

B4: BOX 2 (dsDNA)
DNA 1: AGTTAAGAACTTTCAAAGA
DNA 2: TCTTTGAAAGTTCTTAACT
Turning to B4, in series [4], the binding result was “no binding”.

B5: FAM-DNA (rbcLXS promoter probe) (dsDNA)
DNA 1: TAATAACAAATTTAAATATGTAAGTTAAGAACTTTCAAAGAATAACTTATGCCATTTCTTGATAT
DNA 2: ATATCAAGAAATGGCATAAGTTATTCTTTGAAAGTTCTTAACTTACATATTTAAATTTGTTATTA
B5: the binding result in series [5] is on record as “binds”.
